Assay results reported in IntAct's records for PubMed 24290140.

B1: Four and a half LIM domains protein 1 (Mus musculus), P97447-2 (parent)
chain: MSEKFDCHYCRDPLQGKKYVQKDGRHCCLKCFDKFCANTCVDCRKPISADAKEVHYKNRYWHDNCFRCAKCLHPLASETFVSKDGKILCNKCATREDSPRCKGCFKAIVAGDQNVEYKGTVWHKDCFTCSNCKQVIGTGSFFPKGEDFYCVTCHETKFAKHCVKCNKGLVKAPVWWPMKDNPGTTTASTAKNAP

Variants of: B1
Conditions: with suh_mouse Rbpj

| effect of a mutation on the interaction | Variant |
| --- | --- |
| disrupting interaction strength | W175A;W176A |
